Numbered stars: 1 amine (or outer) side, 2 acyl side, 3 side chain; on linkers, the order of the positions; unused ones are H or OH. Bridge positions count the residues as written; N and C are the ends. Side chains are listed from the residue outwards. Ends that are not written are not given here. * marks the point of attachment. C20 diacid = O=C(O)CCCCCCCCCCCCCCCCCCC(=O)*; γGlu = O=C(O)[C@H](CCC(=O)[*:2])N[*:1]
B1: N^ε-[(4S)-4-carboxy-4-(19-carboxynonadecanoylamino)butanoyl]Lys[Arg1,Arg17,Pro21,Pro27,His35]-h-amylin (peptide)
peptide: K([γGlu-C20 diacid])RCNTATCATQRLANFLRHSSPNFGAIPSSTNVGSHTY-NH2
modifications: disulfide 3-8; N-terminus assumed
SMILES: CC[C@H](C)[C@H](NC(=O)[C@H](C)NC(=O)CNC(=O)[C@H](Cc1ccccc1)NC(=O)[C@H](CC(N)=O)NC(=O)[C@@H]1CCCN1C(=O)[C@H](CO)NC(=O)[C@H](CO)NC(=O)[C@H](Cc1c[nH]cn1)NC(=O)[C@H](CCCNC(=N)N)NC(=O)[C@H](CC(C)C)NC(=O)[C@H](Cc1ccccc1)NC(=O)[C@H](CC(N)=O)NC(=O)[C@H](C)NC(=O)[C@H](CC(C)C)NC(=O)[C@H](CCCNC(=N)N)NC(=O)[C@H](CCC(N)=O)NC(=O)[C@@H](NC(=O)[C@H](C)NC(=O)[C@@H]1CSSC[C@H](NC(=O)[C@H](CCCNC(=N)N)NC(=O)[C@@H](N)CCCCNC(=O)CC[C@H](NC(=O)CCCCCCCCCCCCCCCCCCC(=O)O)C(=O)O)C(=O)N[C@@H](CC(N)=O)C(=O)N[C@@H]([C@@H](C)O)C(=O)N[C@@H](C)C(=O)N[C@@H]([C@@H](C)O)C(=O)N1)[C@@H](C)O)C(=O)N1CCC[C@H]1C(=O)N[C@@H](CO)C(=O)N[C@@H](CO)C(=O)N[C@H](C(=O)N[C@@H](CC(N)=O)C(=O)N[C@H](C(=O)NCC(=O)N[C@@H](CO)C(=O)N[C@@H](Cc1c[nH]cn1)C(=O)N[C@H](C(=O)N[C@@H](Cc1ccc(O)cc1)C(N)=O)[C@@H](C)O)C(C)C)[C@@H](C)O
notes: also called compound 44
B2: N^-1-[(4S)-4-carboxy-4-(19-carboxynonadecanoylamino)butanoyl]-Gly[Arg1,Arg17,Pro21,Pro27,His35]-h-amylin (peptide)
peptide: {C20 diacid-γGlu}-GRCNTATCATQRLANFLRHSSPNFGAIPSSTNVGSHTY-NH2
modifications: disulfide 3-8
SMILES: CC[C@H](C)[C@H](NC(=O)[C@H](C)NC(=O)CNC(=O)[C@H](Cc1ccccc1)NC(=O)[C@H](CC(N)=O)NC(=O)[C@@H]1CCCN1C(=O)[C@H](CO)NC(=O)[C@H](CO)NC(=O)[C@H](Cc1c[nH]cn1)NC(=O)[C@H](CCCNC(=N)N)NC(=O)[C@H](CC(C)C)NC(=O)[C@H](Cc1ccccc1)NC(=O)[C@H](CC(N)=O)NC(=O)[C@H](C)NC(=O)[C@H](CC(C)C)NC(=O)[C@H](CCCNC(=N)N)NC(=O)[C@H](CCC(N)=O)NC(=O)[C@@H](NC(=O)[C@H](C)NC(=O)[C@@H]1CSSC[C@H](NC(=O)[C@H](CCCNC(=N)N)NC(=O)CNC(=O)CC[C@H](NC(=O)CCCCCCCCCCCCCCCCCCC(=O)O)C(=O)O)C(=O)N[C@@H](CC(N)=O)C(=O)N[C@@H]([C@@H](C)O)C(=O)N[C@@H](C)C(=O)N[C@@H]([C@@H](C)O)C(=O)N1)[C@@H](C)O)C(=O)N1CCC[C@H]1C(=O)N[C@@H](CO)C(=O)N[C@@H](CO)C(=O)N[C@H](C(=O)N[C@@H](CC(N)=O)C(=O)N[C@H](C(=O)NCC(=O)N[C@@H](CO)C(=O)N[C@@H](Cc1c[nH]cn1)C(=O)N[C@H](C(=O)N[C@@H](Cc1ccc(O)cc1)C(N)=O)[C@@H](C)O)C(C)C)[C@@H](C)O
notes: also called compound 47
B3: N^ε1-[(4S)-4-carboxy-4-[[(4S)-4-carboxy-4-(19-carboxynonadecanoylamino)butanoyl]amino]butanoyl]-[Glu14,Arg17,Pro21,Pro27,Pro34,Glu35]-h-amylin (peptide)
peptide: K([γGlu-γGlu-C20 diacid])CNTATCATQRLAEFLRHSSPNFGAIPSSTNVGPETY-NH2
modifications: disulfide 2-7; N-terminus assumed
SMILES: CC[C@H](C)[C@H](NC(=O)[C@H](C)NC(=O)CNC(=O)[C@H](Cc1ccccc1)NC(=O)[C@H](CC(N)=O)NC(=O)[C@@H]1CCCN1C(=O)[C@H](CO)NC(=O)[C@H](CO)NC(=O)[C@H](Cc1c[nH]cn1)NC(=O)[C@H](CCCNC(=N)N)NC(=O)[C@H](CC(C)C)NC(=O)[C@H](Cc1ccccc1)NC(=O)[C@H](CCC(=O)O)NC(=O)[C@H](C)NC(=O)[C@H](CC(C)C)NC(=O)[C@H](CCCNC(=N)N)NC(=O)[C@H](CCC(N)=O)NC(=O)[C@@H](NC(=O)[C@H](C)NC(=O)[C@@H]1CSSC[C@H](NC(=O)[C@@H](N)CCCCNC(=O)CC[C@H](NC(=O)CC[C@H](NC(=O)CCCCCCCCCCCCCCCCCCC(=O)O)C(=O)O)C(=O)O)C(=O)N[C@@H](CC(N)=O)C(=O)N[C@@H]([C@@H](C)O)C(=O)N[C@@H](C)C(=O)N[C@@H]([C@@H](C)O)C(=O)N1)[C@@H](C)O)C(=O)N1CCC[C@H]1C(=O)N[C@@H](CO)C(=O)N[C@@H](CO)C(=O)N[C@H](C(=O)N[C@@H](CC(N)=O)C(=O)N[C@H](C(=O)NCC(=O)N1CCC[C@H]1C(=O)N[C@@H](CCC(=O)O)C(=O)N[C@H](C(=O)N[C@@H](Cc1ccc(O)cc1)C(N)=O)[C@@H](C)O)C(C)C)[C@@H](C)O
B4: N^ε1-[(4S)-4-carboxy-4-[[(4S)-4-carboxy-4-(19-carboxynonadecanoylamino)butanoyl]amino]butanoyl]-[Ser14,Arg17,Pro21,Pro27,Pro34,Glu35]-h-amylin (peptide)
peptide: K([γGlu-γGlu-C20 diacid])CNTATCATQRLASFLRHSSPNFGAIPSSTNVGPETY-NH2
modifications: disulfide 2-7; N-terminus assumed
SMILES: CC[C@H](C)[C@H](NC(=O)[C@H](C)NC(=O)CNC(=O)[C@H](Cc1ccccc1)NC(=O)[C@H](CC(N)=O)NC(=O)[C@@H]1CCCN1C(=O)[C@H](CO)NC(=O)[C@H](CO)NC(=O)[C@H](Cc1c[nH]cn1)NC(=O)[C@H](CCCNC(=N)N)NC(=O)[C@H](CC(C)C)NC(=O)[C@H](Cc1ccccc1)NC(=O)[C@H](CO)NC(=O)[C@H](C)NC(=O)[C@H](CC(C)C)NC(=O)[C@H](CCCNC(=N)N)NC(=O)[C@H](CCC(N)=O)NC(=O)[C@@H](NC(=O)[C@H](C)NC(=O)[C@@H]1CSSC[C@H](NC(=O)[C@@H](N)CCCCNC(=O)CC[C@H](NC(=O)CC[C@H](NC(=O)CCCCCCCCCCCCCCCCCCC(=O)O)C(=O)O)C(=O)O)C(=O)N[C@@H](CC(N)=O)C(=O)N[C@@H]([C@@H](C)O)C(=O)N[C@@H](C)C(=O)N[C@@H]([C@@H](C)O)C(=O)N1)[C@@H](C)O)C(=O)N1CCC[C@H]1C(=O)N[C@@H](CO)C(=O)N[C@@H](CO)C(=O)N[C@H](C(=O)N[C@@H](CC(N)=O)C(=O)N[C@H](C(=O)NCC(=O)N1CCC[C@H]1C(=O)N[C@@H](CCC(=O)O)C(=O)N[C@H](C(=O)N[C@@H](Cc1ccc(O)cc1)C(N)=O)[C@@H](C)O)C(C)C)[C@@H](C)O
notes: also called compound 120
B5: N^ε1-[(4S)-4-carboxy-4-[[(4S)-4-carboxy-4-(19-carboxynonadecanoylamino)butanoyl]amino]butanoyl]-[Glu14,Arg17,Pro23,Pro34,Glu35]-h-amylin (peptide)
peptide: K([γGlu-γGlu-C20 diacid])CNTATCATQRLAEFLRHSSNNPGAILSSTNVGPETY-NH2
modifications: disulfide 2-7; N-terminus assumed
SMILES: CC[C@H](C)[C@H](NC(=O)[C@H](C)NC(=O)CNC(=O)[C@@H]1CCCN1C(=O)[C@H](CC(N)=O)NC(=O)[C@H](CC(N)=O)NC(=O)[C@H](CO)NC(=O)[C@H](CO)NC(=O)[C@H](Cc1c[nH]cn1)NC(=O)[C@H](CCCNC(=N)N)NC(=O)[C@H](CC(C)C)NC(=O)[C@H](Cc1ccccc1)NC(=O)[C@H](CCC(=O)O)NC(=O)[C@H](C)NC(=O)[C@H](CC(C)C)NC(=O)[C@H](CCCNC(=N)N)NC(=O)[C@H](CCC(N)=O)NC(=O)[C@@H](NC(=O)[C@H](C)NC(=O)[C@@H]1CSSC[C@H](NC(=O)[C@@H](N)CCCCNC(=O)CC[C@H](NC(=O)CC[C@H](NC(=O)CCCCCCCCCCCCCCCCCCC(=O)O)C(=O)O)C(=O)O)C(=O)N[C@@H](CC(N)=O)C(=O)N[C@@H]([C@@H](C)O)C(=O)N[C@@H](C)C(=O)N[C@@H]([C@@H](C)O)C(=O)N1)[C@@H](C)O)C(=O)N[C@@H](CC(C)C)C(=O)N[C@@H](CO)C(=O)N[C@@H](CO)C(=O)N[C@H](C(=O)N[C@@H](CC(N)=O)C(=O)N[C@H](C(=O)NCC(=O)N1CCC[C@H]1C(=O)N[C@@H](CCC(=O)O)C(=O)N[C@H](C(=O)N[C@@H](Cc1ccc(O)cc1)C(N)=O)[C@@H](C)O)C(C)C)[C@@H](C)O

Each binder was assayed against T1, human calcitonin receptor (human, UniProt P30988 25-474) (assay: cell-based or functional assay).
T1 sequence (looked up): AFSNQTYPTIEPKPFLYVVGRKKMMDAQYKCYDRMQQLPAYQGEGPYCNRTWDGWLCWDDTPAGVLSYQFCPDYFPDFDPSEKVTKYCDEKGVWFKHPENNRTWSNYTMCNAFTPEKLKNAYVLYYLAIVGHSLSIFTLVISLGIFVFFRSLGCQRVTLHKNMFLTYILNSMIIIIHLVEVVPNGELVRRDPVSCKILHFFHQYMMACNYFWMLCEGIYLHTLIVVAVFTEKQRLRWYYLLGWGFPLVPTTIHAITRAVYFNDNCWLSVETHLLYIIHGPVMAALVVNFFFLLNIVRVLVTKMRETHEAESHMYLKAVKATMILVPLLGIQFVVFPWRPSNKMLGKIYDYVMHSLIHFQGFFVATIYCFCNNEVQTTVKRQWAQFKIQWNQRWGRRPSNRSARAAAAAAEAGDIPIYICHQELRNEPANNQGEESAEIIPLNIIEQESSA

| Binder | hCTR funct. EC50 (pM) |
| --- | --- |
| B1 | 4750 |
| B2 | 1320 |
| B3 | 2360 |
| B4 | 887 |
| K([γGlu-γGlu-C20 diacid])CNTATCATQRLAEFLRHSSPNFGAIPSSTNVGPHTY-NH2 (disulfide 2-7 (inferred)) | 2830 |
| B5 | 89600 |
| K([γGlu-γGlu-C20 diacid])CNTATCATQRLAEFLRHSSPNFGAILSSTPVGPETY-NH2 (disulfide 2-7 (inferred)) | 1280 |

These binders were tested against T2, human amylin receptor (amylin 3(a) receptor: human calcitonin receptor plus RAMP-3) (human, UniProt P30988 25-474; O60896 24-148) (assay: cell-based or functional assay).
T2 sequence (looked up) 1: T1 sequence (looked up)
T2 sequence (looked up) 2: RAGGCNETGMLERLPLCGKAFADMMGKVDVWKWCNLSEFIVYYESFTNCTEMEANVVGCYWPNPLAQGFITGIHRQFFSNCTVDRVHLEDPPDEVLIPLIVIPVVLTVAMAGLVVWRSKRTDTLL

| Binder | Ratio hCT/hAmylin funct. | hAmylin-R funct. EC50 (pM) |
| --- | --- | --- |
| B1 | 24 | 198 |
| B2 | 6 | 222 |
| B3 |  | 225 |
| B4 | 8.1 | 109 |
| K([γGlu-γGlu-C20 diacid])CNTATCATQRLAEFLRHSSPNFGAIPSSTNVGPHTY-NH2 (disulfide 2-7 (inferred)) |  | 172 |
| B5 |  | 5170 |
| K([γGlu-γGlu-C20 diacid])CNTATCATQRLAEFLRHSSPNFGAILSSTPVGPETY-NH2 (disulfide 2-7 (inferred)) | 5.8 | 222 |

Each binder was assayed against T2, human amylin receptor (amylin 3(a) …) (assay: SPA competition binding, displacement of 125I-rat amylin, membranes of BHK amylin 3(a)/CRE-luc cells).
Procedure, shortened: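 One-site competition analysis of SPA counts yielded IC₅₀ as a measure of affinity. Membranes were at 35 ng/μL final; incubation was 120 min at 25° C, pH 7.4.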

| Binder | IC50 [nM] |
| --- | --- |
| B1 | 0.275 |
| B2 | 0.344 |
| B3 | 0.121 |
| B4 | 0.076 |
| K([γGlu-γGlu-C20 diacid])CNTATCATQRLAEFLRHSSPNFGAIPSSTNVGPHTY-NH2 (disulfide 2-7 (inferred)) | 0.377 |
| B5 | 1.19 |
| K([γGlu-γGlu-C20 diacid])CNTATCATQRLAEFLRHSSPNFGAILSSTPVGPETY-NH2 (disulfide 2-7 (inferred)) | 0.069 |
